Target: T1, p53-382 acetylated peptide substrate ('Fluor de Lys-SIRT1', BIOMOL) (not fully specified)
T1 chain: RHKK

B1: recombinant human SIRT1 (His6-tagged) (protein)
chain: MADEAALALQPGGSPSAAGADREAASSPAGEPLRKRPRRDGPGLERSPGEPGGAAPEREVPAAARGCPGAAAAALWREAEAEAAAAGGEQEAQATAAAGEGDNGPGLQGPSREPPLADNLYDEDDDDEGEEEEEAAAAAIGYRDNLLFGDEIITNGFHSCESDEEDRASHASSSDWTPRPRIGPYTFVQQHLMIGTDPRTILKDLLPETIPPPELDDMTLWQIVINILSEPPKRKKRKDINTIEDAVKLLQECKKIIVLTGAGVSVSCGIPDFRSRDGIYARLAVDFPDLPDPQAMFDIEYFRKDPRPFFKFAKEIYPGQFQPSLCHKFIALSDKEGKLLRNYTQNIDTLEQVAGIQRIIQCHGSFATASCLICKYKVDCEAVRGDIFNQVVPRCPRCPADEPLAIMKPEIVFFGENLPEQFHRAMKYDKDEVDLLIVIGSSLKVRPVALIPSSIPHEVPQILINREPLPHLHFDVELLGDCDVIINELCHRLGGEYAKLCCNPVKLSEITEKPPRTQKELAYLSELPPTPLHVSEDSSSPERTSPPDSSVIVTLLDQAAKSNDDLDVSESKGCMEEKPQEVQTSRNVESIAEQMENPDLKNVGSSTGEKNERTSVAGTVRKCWPNRVAKEQISRRLDGNQYLFLPPNRYIFHGAEVYSDSEDDVLSSSSCGSNSDSGTCQSPSLEEPMEDESEIEEFYNGLEDEPDVPERAGGAGFGTDGDDQEAINEAISVKQEVTDMNYPSNKS
For B1, the “Km for p53-382 acetylated peptide (SIRT1 initial rate at 3 mM NAD+, control, no resveratrol)” value was “Km(control, ν)=64 µM”, the “Km for p53-382 acetylated peptide (SIRT1 initial rate at 3 mM NAD+, with 100 µM resveratrol)” value was “Km (+resveratrol, Δ)=1.8 µM” and the “fold decrease of the acetylated peptide Km caused by 100 µM resveratrol” value was “Its effect on the acetylated peptide Km was particularly striking, amounting to a 35-fold decrease”.

— patent publication US20060025337
